Target: Full-length (FL) BRAF purified from HEK293F cells (UniProt P15056)
Assay: SPR; OpenSPR; His/MBP-NT1-4 or FL-BRAF immobilised on Ni-NTA sensor, KRAS-GMPPNP (GST-tagged or untagged) or GST alone flowed at 30 μL/min for 10 min; 20 mM HEPES pH 7.4, 150 mM NaCl, 0.23% glycerol, 0.05% Tween-20, 1% BSA; 1:1 fit

Sequence of Full-length (FL) BRAF purified from HEK293F cells (P15056 whole entry): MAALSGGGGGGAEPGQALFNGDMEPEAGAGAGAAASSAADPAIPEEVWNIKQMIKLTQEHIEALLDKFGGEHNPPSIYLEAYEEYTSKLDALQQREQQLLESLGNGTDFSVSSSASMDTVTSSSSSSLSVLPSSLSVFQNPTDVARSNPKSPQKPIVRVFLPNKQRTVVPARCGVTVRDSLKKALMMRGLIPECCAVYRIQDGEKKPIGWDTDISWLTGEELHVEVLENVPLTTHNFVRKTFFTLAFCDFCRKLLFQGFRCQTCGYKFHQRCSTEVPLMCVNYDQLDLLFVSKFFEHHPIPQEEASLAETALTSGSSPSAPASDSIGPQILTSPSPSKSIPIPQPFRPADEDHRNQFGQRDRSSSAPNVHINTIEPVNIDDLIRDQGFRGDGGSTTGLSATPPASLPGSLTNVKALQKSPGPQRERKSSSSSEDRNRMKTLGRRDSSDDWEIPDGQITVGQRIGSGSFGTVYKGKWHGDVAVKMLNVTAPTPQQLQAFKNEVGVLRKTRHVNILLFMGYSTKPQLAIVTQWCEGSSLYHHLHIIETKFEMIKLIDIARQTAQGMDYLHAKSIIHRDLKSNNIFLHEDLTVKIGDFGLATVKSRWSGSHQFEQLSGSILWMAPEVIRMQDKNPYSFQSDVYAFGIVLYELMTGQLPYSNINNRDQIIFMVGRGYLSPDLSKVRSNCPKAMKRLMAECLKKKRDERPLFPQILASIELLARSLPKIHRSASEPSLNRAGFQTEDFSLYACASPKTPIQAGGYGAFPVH

GST-tagged, dimeric full-length KRAS4b (from UniProt P01116-2 1-188) (natural protein)
Kd: 101 nM
